For experiment [1], the target named is T1, HLA class I molecule B07.02.
T1 construct: Purified MHC class I complex; also called HLA-B07:02
Kind of experiment: pMHC-I dissociation assay with 125I-labeled beta2m light chain at 37 C, scintillation counts; time in hours for half of the complexes to dissociate. The procedure:
(§1) Briefly, synthetic genes encoding biotinylated MHC-I heavy and light chains are expressed in E. coli and purified from inclusion bodies using standard methods. […] These reactions are carried out in streptavidin coated microplates to bind the biotinylated MHC-I heavy chains to the surface and allow measurement of radiolabeled light chain to monitor complex formation. Dissociation is initiated by addition of higher concentrations of unlabeled light-chain and incubation at 37° C. Stability is defined as the length of time in hours it takes for half of the complexes to dissociate, as measured by scintillation counts.

For experiment [2], the target named is T2, HLA class I molecule B08.01.
T2 construct: Purified MHC class I complex; also called HLA-B08:01
Described as above. The procedure:
as §1

Experiment [3] addresses T1, HLA class I molecule B07.02. The experiment can be described thus: competition with radiolabeled reference peptide on purified MHC I. The procedure:
(§2) Peptides were incubated at varying concentrations with these complexes for 2 days, and the amount of remaining radiolabeled peptide bound to […] was measured using size exclusion gel-filtration.

In experiment [4] the target is HLA-A02.01 (human). The experiment can be described thus: pMHC-I complex dissociation at 37 C, 125I-b2m, half-life. In short, it runs like this:
(§3)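 Biotinylated MHC-I heavy chain made in E. coli, captured on streptavidin plates and complexed with peptide and radiolabelled light chain. Dissociation started with excess unlabelled light chain at 37 °C. Stability is the half-life in hours from scintillation counts.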

Experiment [5] addresses T3, HLA-A24.02 (human).
T3 construct: As for HLA-A02.01
The description is as above. In short, it runs like this: as §3

Experiment [6] has as its target T3, HLA-A24.02. Kind of experiment: competition vs radiolabeled reference peptide on purified MHC I, gel filtration. Here is the method: as §2
For orientation: In gel filtration, larger molecules generally elute earlier.

In experiment [7] the target is T4, HLA-B07.02 (human).
T4 construct: Purified class I MHC
Kind of experiment: pMHC-I dissociation half-life, 125I-b2m. In short, it runs like this:
as §3

For another experiment, the target named is T5, HLA-B08.01 (human).
T5 construct: Purified class I MHC
Kind of experiment: pMHC-I dissociation half-life, 125I-b2m. The method, boiled down: as §3

Experiment [8] has as its target T4, HLA-B07.02. Kind of experiment: competition with radiolabeled reference peptide, purified MHC I. Here is the method: as §2
Experiment [9] deals with T6, HLA class I molecule A03.01.
T6 construct: Purified MHC class I complex; also called HLA-A03:01
Kind of experiment: competition with radiolabeled reference peptide on purified MHC I. The procedure:
as §2

In experiment [10] the target is HLA-A02.01 (human). The experiment can be described thus: competition vs radiolabeled reference peptide on purified MHC I, gel filtration. The procedure:
as §2

A further experiment addresses T7, HLA-A03.01 (human).
T7 construct: Purified class I MHC
Kind of experiment: pMHC-I dissociation half-life, 125I-b2m. In short, it runs like this: as §3

Experiment [11] has as its target T8, HLA-A02.01 (human).
T8 construct: Purified class I MHC
Kind of experiment: pMHC-I dissociation half-life, 125I-b2m. In short, it runs like this:
as §3

The source of these data is patent publication US20220282217A1 (BIONTECH US, published 2022).

B1: FATLQRSSL (peptide)
peptide: FATLQRSSL
notes: also called GATA3 . . ; CSNH
Regarding B1, the “Observed MHC Stability” value in experiment [1] was found to be 0.7 h; in [2], 0 h. The IC50 (usually the point on the concentration scale where inhibition reaches its midpoint) in experiment [3] worked out at 14 nM.

B2: VVPLYGLLL (peptide)
peptide: VVPLYGLLL
notes: also called ESR1, D538G
As to B2, the results for the “Stability (T1/2 (h))” value with HLA-A02.01 [4] and with HLA-A24.02 [5] were 0.6 h and 0.8 h, respectively. The molecule further returned a 50% inhibitory concentration (IC50) with HLA-A24.02 [6] of 658 nM.

B3: KPKRDGYMF (peptide)
peptide: KPKRDGYMF
notes: also called GATA3 . . ; CSNH
With B3, in [1], the “Observed MHC Stability” value was 8.6 h. In addition, the IC50 in [3] was 28.2 nM.

B4: HPRPAPASA (peptide)
peptide: HPRPAPASA
notes: also called TP53, SHST
As to B4, the “Stability (T1/2 (h))” value in the experiment with HLA-B07.02 [7] is 4.9 h; with HLA-B08.01 it was 0 h. In addition, in the experiment with HLA-B07.02 [8], the 50% inhibitory concentration (IC50) came out at 11 nM.

B5: KPKRDGYMFL (peptide)
peptide: KPKRDGYMFL
notes: also called GATA3 . . ; CSNH
Regarding B5, in experiment [1], the “Observed MHC Stability” value came to 3.3 h. In [3], this molecule showed an IC50 of 98.1 nM.

B6: KPTRAATVSV (peptide)
peptide: KPTRAATVSV
notes: also called TP53, QPSL
On to B6, for which the “Stability (T1/2 (h))” value with HLA-B07.02 [7] turned out to be 3 h. This molecule showed an IC50 with HLA-B07.02 [8] of 8 nM.

B7: LPRKPTRAAT (peptide)
peptide: LPRKPTRAAT
notes: also called TP53, QPSL
For B7, in the experiment with HLA-B07.02 [7], the “Stability (T1/2 (h))” value was 3.7 h. Further, the IC50 in the experiment with HLA-B07.02 [8] came out at 3 nM.

B8: FFCWILSCK (peptide)
peptide: FFCWILSCK
notes: also called NDUFC2 (-KCDT14)(+1)
In experiment [9], B8 showed an IC50 of 185 nM. This lies in the sub-micromolar range.

B9: GVYTFLPSTL (peptide)
peptide: GVYTFLPSTL
notes: also called ESR1, S463P
On to B9, for which the “Stability (T1/2 (h))” value in the experiment with HLA-A02.01 [4] was determined as 0.4 h; in the experiment with HLA-A24.02 [5], 0 h. In addition, the IC50 with HLA-A02.01 [10] was determined as 1200 nM; with HLA-A24.02 [6], 7700 nM.

B10: RLSSCVPVA (peptide)
peptide: RLSSCVPVA
notes: also called TGFBR2(-1)
As to B10, the “Stability (T1/2 (h))” value in the experiment with HLA-A03.01 is 0 h; with HLA-A02.01 [11], 18.7 h.

B11: AISTRDPLSK (peptide)
peptide: AISTRDPLSK
notes: also called PIK3CA, E542K
In the case of B11, in experiment [9], the concentration for half-maximal inhibition (IC50) is 57.5 nM. That is a double-digit nanomolar value.

B12: VVPLCDLLL (peptide)
peptide: VVPLCDLLL
notes: also called ESR1, Y537C
With B12, the “Stability (T1/2 (h))” value is 0 h with HLA-A02.01 [4] and 0.4 h in the experiment with HLA-A24.02 [5]. For the same molecule, the IC50 with HLA-A02.01 [10] amounted to 1200 nM; with HLA-A24.02 [6], 3890 nM.

B13: VVPLSDLLL (peptide)
peptide: VVPLSDLLL
notes: also called ESR1, Y537S
Take B13: the “Stability (T1/2 (h))” value was 0 h with HLA-A02.01 [4] and 0.5 h with HLA-A24.02 [5]. For the same molecule, the IC50 with HLA-A02.01 [10] was 2550 nM; with HLA-A24.02 [6] it was 8250 nM.

B14: KGPELFPLI (peptide)
peptide: KGPELFPLI
notes: also called C11orf95: RELA
Turning to B14, the “Stability (T1/2 (h))” value in the experiment with HLA-A02.01 [4] was determined as 0.3 h; with HLA-A24.02 [5] it was 1.7 h. Besides, the values for the IC50 with HLA-A02.01 [10] and in the experiment with HLA-A24.02 [6] were 101 nM and 14 nM, respectively.

B15: YLVIQLQDKF (peptide)
peptide: YLVIQLQDKF
notes: also called EGFR: SEPT14
Turning to B15, the “Stability (T1/2 (h))” value amounted to 0 h with HLA-A02.01 [4] and 2.6 h with HLA-A24.02 [5]. Also, the figures for the IC50 with HLA-A02.01 [10] and with HLA-A24.02 [6] were 2060 nM and 2150 nM, respectively.

B16: MFATLQRSSL (peptide)
peptide: MFATLQRSSL
notes: also called GATA3 . . ; CSNH
Regarding B16, the “Observed MHC Stability” value in [1] and in experiment [2] was 0 h throughout. In experiment [3], this molecule returned an IC50 of 267 nM.

B17: GPPARVPAV (peptide)
peptide: GPPARVPAV
notes: also called GATA3 . . ; CSNH
Consider B17, for which the “Observed MHC Stability” value in [1] amounted to 1.6 h. Moreover, the IC50 in experiment [3] stood at 221 nM.

B18: LPSQRRNHWM (peptide)
peptide: LPSQRRNHWM
notes: also called TP53, CSES
Regarding B18, the “Stability (T1/2 (h))” value with HLA-B07.02 [7] came to 6.5 h; with HLA-B08.01, 0.7 h. The same molecule yielded an IC50 in the experiment with HLA-B07.02 [8] of 10 nM.
